Target: POLQ-FLAG (DNA polymerase θ) (human, UniProt O75417 1-2590)
Assay: co-IP

POLQ-FLAG (DNA polymerase θ), sequence (O75417 whole entry): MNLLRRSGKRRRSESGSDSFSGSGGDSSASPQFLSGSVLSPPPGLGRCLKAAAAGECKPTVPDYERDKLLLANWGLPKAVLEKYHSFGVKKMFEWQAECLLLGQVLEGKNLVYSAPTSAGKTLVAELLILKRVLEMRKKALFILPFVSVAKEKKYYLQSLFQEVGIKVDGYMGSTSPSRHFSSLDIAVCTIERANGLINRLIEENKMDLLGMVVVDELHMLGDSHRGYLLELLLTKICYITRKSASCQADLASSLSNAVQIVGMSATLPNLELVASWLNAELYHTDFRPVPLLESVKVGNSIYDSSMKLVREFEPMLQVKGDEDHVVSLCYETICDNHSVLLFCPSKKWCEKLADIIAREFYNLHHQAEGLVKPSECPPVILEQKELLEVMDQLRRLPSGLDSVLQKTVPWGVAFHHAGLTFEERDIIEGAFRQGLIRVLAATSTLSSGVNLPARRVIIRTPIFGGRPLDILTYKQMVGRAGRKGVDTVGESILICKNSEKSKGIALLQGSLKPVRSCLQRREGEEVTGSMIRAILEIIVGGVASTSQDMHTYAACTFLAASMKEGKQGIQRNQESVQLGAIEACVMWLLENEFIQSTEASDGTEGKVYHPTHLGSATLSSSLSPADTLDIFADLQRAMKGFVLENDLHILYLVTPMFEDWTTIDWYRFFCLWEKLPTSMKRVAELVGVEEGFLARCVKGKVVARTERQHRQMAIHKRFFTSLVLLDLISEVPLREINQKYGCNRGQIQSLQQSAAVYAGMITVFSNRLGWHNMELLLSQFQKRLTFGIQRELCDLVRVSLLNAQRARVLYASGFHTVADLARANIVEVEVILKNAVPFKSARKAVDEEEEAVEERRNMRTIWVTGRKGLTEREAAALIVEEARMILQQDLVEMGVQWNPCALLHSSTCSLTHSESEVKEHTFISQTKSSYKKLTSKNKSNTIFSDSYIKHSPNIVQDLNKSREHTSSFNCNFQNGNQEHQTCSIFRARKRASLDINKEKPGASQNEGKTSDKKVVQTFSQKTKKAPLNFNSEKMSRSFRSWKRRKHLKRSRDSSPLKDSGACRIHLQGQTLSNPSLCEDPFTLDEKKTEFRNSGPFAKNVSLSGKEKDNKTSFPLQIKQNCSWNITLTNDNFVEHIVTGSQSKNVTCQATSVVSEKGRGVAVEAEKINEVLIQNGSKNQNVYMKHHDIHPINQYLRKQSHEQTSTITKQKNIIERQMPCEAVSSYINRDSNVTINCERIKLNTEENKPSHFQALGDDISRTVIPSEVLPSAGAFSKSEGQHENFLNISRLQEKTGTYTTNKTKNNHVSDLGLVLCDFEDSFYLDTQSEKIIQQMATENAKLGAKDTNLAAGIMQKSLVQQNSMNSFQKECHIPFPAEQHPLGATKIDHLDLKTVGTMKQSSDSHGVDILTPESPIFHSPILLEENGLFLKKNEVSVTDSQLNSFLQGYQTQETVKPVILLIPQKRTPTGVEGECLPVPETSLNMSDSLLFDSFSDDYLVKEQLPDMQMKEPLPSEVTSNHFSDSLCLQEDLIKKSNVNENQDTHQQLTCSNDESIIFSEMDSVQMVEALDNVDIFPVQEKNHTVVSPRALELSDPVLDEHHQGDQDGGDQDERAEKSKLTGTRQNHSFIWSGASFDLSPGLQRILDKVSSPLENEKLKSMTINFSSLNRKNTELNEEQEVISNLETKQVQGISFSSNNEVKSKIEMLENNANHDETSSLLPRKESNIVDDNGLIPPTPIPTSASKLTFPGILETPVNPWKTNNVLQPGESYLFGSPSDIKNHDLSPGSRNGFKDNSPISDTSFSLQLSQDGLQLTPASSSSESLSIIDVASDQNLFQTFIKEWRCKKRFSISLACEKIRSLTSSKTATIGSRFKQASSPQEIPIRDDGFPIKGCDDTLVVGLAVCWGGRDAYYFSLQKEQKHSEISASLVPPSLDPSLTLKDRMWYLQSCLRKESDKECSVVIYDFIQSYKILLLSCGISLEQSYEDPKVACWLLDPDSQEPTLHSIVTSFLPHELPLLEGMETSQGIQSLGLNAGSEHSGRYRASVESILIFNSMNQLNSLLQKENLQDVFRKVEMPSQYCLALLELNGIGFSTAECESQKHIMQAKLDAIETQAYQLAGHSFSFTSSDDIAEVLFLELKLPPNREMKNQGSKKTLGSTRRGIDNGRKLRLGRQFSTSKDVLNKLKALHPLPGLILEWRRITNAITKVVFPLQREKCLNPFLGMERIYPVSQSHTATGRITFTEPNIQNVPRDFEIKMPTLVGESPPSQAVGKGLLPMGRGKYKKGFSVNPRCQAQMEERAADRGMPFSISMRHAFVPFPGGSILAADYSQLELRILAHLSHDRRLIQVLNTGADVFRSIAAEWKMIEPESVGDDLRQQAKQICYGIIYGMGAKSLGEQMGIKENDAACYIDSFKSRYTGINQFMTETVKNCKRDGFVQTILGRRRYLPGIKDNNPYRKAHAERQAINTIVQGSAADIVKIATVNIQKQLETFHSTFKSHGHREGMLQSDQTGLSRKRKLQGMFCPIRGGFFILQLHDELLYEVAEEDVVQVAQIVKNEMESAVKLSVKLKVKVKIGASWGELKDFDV

B1: MRE11 (natural protein, human (endogenous in U2OS), UniProt P49959 1-708, looked up)
chain: MSTADALDDENTFKILVATDIHLGFMEKDAVRGNDTFVTLDEILRLAQENEVDFILLGGDLFHENKPSRKTLHTCLELLRKYCMGDRPVQFEILSDQSVNFGFSKFPWVNYQDGNLNISIPVFSIHGNHDDPTGADALCALDILSCAGFVNHFGRSMSVEKIDISPVLLQKGSTKIALYGLGSIPDERLYRMFVNKKVTMLRPKEDENSWFNLFVIHQNRSKHGSTNFIPEQFLDDFIDLVIWGHEHECKIAPTKNEQQLFYISQPGSSVVTSLSPGEAVKKHVGLLRIKGRKMNMHKIPLHTVRQFFMEDIVLANHPDIFNPDNPKVTQAIQSFCLEKIEEMLENAERERLGNSHQPEKPLVRLRVDYSGGFEPFSVLRFSQKFVDRVANPKDIIHFFRHREQKEKTGEEINFGKLITKPSEGTTLRVEDLVKQYFQTAEKNVQLSLLTERGMGEAVQEFVDKEEKDAIEELVKYQLEKTQRFLKERHIDALEDKIDEEVRRFRETRQKNTNEEDDEVREAMTRARALRSQSEESASAFSADDLMSIDLAEQMANDSDDSISAATNKGRGRGRGRRGGRGQNSASRGGSQRGRADTGLETSTRSRNSKTAVSASRNMSIIDAFKSTRQQPSRNVTTKNYSEVIEVDESDVEEDIFPTTSKTDQRWSSTSSSKIMSQSQVSKGVDFESSEDDDDDPFMNTSSLRRNRR
  fold level in POLQ-FLAG IP, BRCA2-deficient over BRCA2-proficient cells: ~4 fold

Reference: PMC7397735 (NAR Cancer, 2020)
